For test [1], the target named is T1, Tim-3-his (human, UniProt Q8TDQ0 22-202, limits assumed).
T1 construct: not shown: his tag
The test can be described thus: SPR (BIAcore T-200), antibody captured by anti-human Fab, Tim-3-his flowed.

The target in test [2] is T2, Tim-3 (form used in the assay not stated) (human, UniProt Q8TDQ0 22-202, limits assumed). Description: SPR, Fab, Test 1.
Test [3] addresses T2, Tim-3 (form used in the assay not …). Description: SPR, Fab, Test 2. For orientation: Surface plasmon resonance follows binding to a sensor surface in real time, without labels.
The target is the same in test [4]. Description: SPR, Fab, mean of Test 1 and Test 2.
Test [5] has as its target T1, Tim-3-his. The test can be described thus: BLI (ForteBio Octet), antibody captured on protein A tips, dipped in Tim-3-his solution. Background: BLI is a label-free optical method that tracks binding on a fibre tip over time.
The target of test [6] is T2, Tim-3 (form used in the assay not …). The test can be described thus: ELISA on Tim-3, absorbance at OD450nm against antibody concentration.
Test [7] addresses Tim-3-mIgG2a (human; mouse, UniProt Q8TDQ0 22-202). Description: ELISA on Tim-3-mIg, absorbance at OD450nm against antibody concentration. In general terms: An ELISA detects its analyte on a solid surface through an enzyme-linked reagent.
Test [8] addresses T3, Human Fc-tagged Tim-3 IgV domain (human, UniProt Q8TDQ0 22-130, limits assumed).
T3 construct: not shown: human Fc tag
T3 sequence: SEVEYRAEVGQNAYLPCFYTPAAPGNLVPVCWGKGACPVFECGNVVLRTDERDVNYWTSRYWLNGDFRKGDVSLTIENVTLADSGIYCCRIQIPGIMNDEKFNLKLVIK
Description: SPR (BIAcore T-200), Fc-tagged Tim-3 IgV domain captured by anti-human IgG, antibody flowed.

B1: Ab1 in human IgG4 format with S228P mutation (antibody, V domains shown)
VH: QVQLVQSGAEVKKPGSSVKVSCKASGYTFTSYNMHWVRQAPGQGLEWMGDIYPGNGDTSYNQKFKGRVTITADKSTSTVYMELSSLRSEDTAVYYCARVGGAFPMDYWGQGTTVTVSS
VL: AIQLTQSPSSLSASVGDRVTITCRASESVEYYGTSLMQWYQQKPGKAPKLLIYAASNVESGVPSRFSGSGSGTDFTLTISSLQPEDFATYFCQQSRKDPSTFGGGTKVEIK
notes: Known Tim-3 antibody, generated in human IgG4 format with S228P mutation
The Kd is the free concentration of one partner at which half of the binding sites on the other are occupied at equilibrium, for simple one-to-one binding. A higher Kd goes with weaker binding. By koff is commonly meant a measure of how fast the partners let go of each other. As usually defined, the kon is the rate constant with which the complex forms. A lower kon goes with slower complex formation. Turning to B1, in test [1], the Kd stood at 0.271 nM, the dissociation rate constant (koff) was 0.00012 s⁻¹ and the kon was 444000 M⁻¹ s⁻¹.

B2: hu425-2-2 Fab (Fab, V domains shown)
VH: EVQLVESGGGLVQPGGSLRLSCAASGFTFSRYAMSWVRQAPGKGLEWVAAISSGGSLYYPDSVKGRFTISRDNAKNTLYLQMNSLRAEDTAVYYCARGREADGGYFDYWGQGTLVTVSS
VL: EIVMTQSPATLSVSPGERATLSCRASESVEYYGTSLMQWYQQKPGQAPRLLIYAASNVESGIPARFSGSGSGTEFTLTISSLQSEDFAVYYCQQSLKVPLTFGGGTKVEIK
notes: Fab prepared from the mAb with the Pierce Fab Preparation Kit; Only the variable domains are tied to the name. hu425s were engineered in the human IgG1 format
In test [2], B2 yielded a dissociation constant Kd of 0.434 nM, an off-rate (koff) of 0.00074 s⁻¹ and a kon of 1.71e+06 M⁻¹ s⁻¹. In test [3], this molecule gave a Kd of 0.404 nM, a koff of 0.000795 s⁻¹ and a kon of 1.97e+06 M⁻¹ s⁻¹. Also, the Kd in test [4] came out at 0.419 nM.

B3: hu425-1-1 Fab (Fab, V domains shown)
VH: EVQLVESGGGLVQPGGSLRLSCAASGFTFSRYAMSWVRQAPGKGLEWVAAISSGGSLYFPDSVKGRFTISRDNAKNSCYLQMNSLRAEDTAVYYCARGREADGGYFDYWGQGTLVTVSS
VL: DIVLTQSPATLSVSPGERATLSCRASESVEYYGTSLMQWYQQKPGQAPRLLIYAASNVESGVPARFSGSGSGTDFTLTISSLQSEDFAVYYCQQSMKVPLTFGGGTKVEIKR
notes: Fab prepared from the mAb with the Pierce Fab Preparation Kit
Turning to B3, in test [2], binding was characterised by a dissociation constant (Kd) of 0.159 nM, the koff worked out at 0.000108 s⁻¹ and the association rate constant (kon) is 679000 M⁻¹ s⁻¹. In test [3], this molecule yielded a dissociation constant (Kd) of 0.346 nM, a koff of 0.000435 s⁻¹ and an on-rate constant (kon) of 1.26e+06 M⁻¹ s⁻¹. This molecule showed a dissociation constant (Kd) in test [4] of 0.253 nM.

B4: hybrid antibody 425 HC/Ab1 LC (antibody, V domains shown)
VH: EVQLVESGGGLVQPGGSLRLSCAASGFTFSRYAMSWVRQAPGKGLEWVAAISSGGSLYYPDSVKGRFTISRDNAKNTLYLQMNSLRAEDTAVYYCARGREADGGYFDYWGQGTLVTVSS
VL: AIQLTQSPSSLSASVGDRVTITCRASESVEYYGTSLMQWYQQKPGKAPKLLIYAASNVESGVPSRFSGSGSGTDFTLTISSLQPEDFATYFCQQSRKDPSTFGGGTKVEIK
In the case of B4, the binding result in test [5] is reported as “no binding”.

B5: Hu425-2-3b in human IgG4 format with S228P mutation (antibody, V domains shown)
VH: EVQLVESGGGLVQPGGSLRLSCAASGFTFSRYAMSWVRQAPGKGLEWVAAISSGGSLYYPDSVKGRFTISRDNAKNTLYLQMNSLRAEDTAVYYCARGREADGGYFDYWGQGTLVTVSS
VL: EIVLTQSPATLSVSPGERATLSCRASESVEYYGTSLMQWYQQKPGQAPRLLIYAASNVESGIPARFSGSGSGTEFTLTISSLQSEDFAVYYCQQSLKVPLTFGGGTKVEIK
As for B5, in test [1], the dissociation constant Kd came out at 1.47 nM, the koff was found to be 0.000778 s⁻¹ and the on-rate constant (kon) worked out at 528000 M⁻¹ s⁻¹.

B6: hu425-2F-1 (antibody, human IgG1, kappa, V domains shown)
VH: EVQLVESGGGLVQPGGSLRLSCAASGFTFSRYAMSWVRQAPGKGLEWVAAISSGGSLYFPDSVKGRFTISRDNAKNSCYLQMNSLRAEDTAVYYCARGREADAGYFDYWGQGTLVTVSS
VL: DIVLTQSPATLSVSPGERATLSCRASESVEYYGTSLMQWYQQKPGQAPRLLIYAASNVESGVPARFSGSGSGTDFTLTISSLQSEDFAVYYCQQSMKVPLTFGGGTKVEIKR
notes: Single amino acid mutation from hu425-1-1; also called G103A
Turning to B6, the binding result in test [6] is listed as “no binding”.

B7: hu425-2-3b (antibody, V domains shown)
VH: EVQLVESGGGLVQPGGSLRLSCAASGFTFSRYAMSWVRQAPGKGLEWVAAISSGGSLYYPDSVKGRFTISRDNAKNTLYLQMNSLRAEDTAVYYCARGREADGGYFDYWGQGTLVTVSS
VL: EIVLTQSPATLSVSPGERATLSCRASESVEYYGTSLMQWYQQKPGQAPRLLIYAASNVESGIPARFSGSGSGTEFTLTISSLQSEDFAVYYCQQSLKVPLTFGGGTKVEIK
notes: Full chains are not tied to the name
What is called EC50 (read off the curve) is the concentration needed to bring the measured effect to its halfway point. Take B7: the “EC50 (read off the curve)” value in test [7] is around 0.01 µg/mL.

B8: hu425-2-3b Fab (Fab, V domains shown)
VH: EVQLVESGGGLVQPGGSLRLSCAASGFTFSRYAMSWVRQAPGKGLEWVAAISSGGSLYYPDSVKGRFTISRDNAKNTLYLQMNSLRAEDTAVYYCARGREADGGYFDYWGQGTLVTVSS
VL: EIVLTQSPATLSVSPGERATLSCRASESVEYYGTSLMQWYQQKPGQAPRLLIYAASNVESGIPARFSGSGSGTEFTLTISSLQSEDFAVYYCQQSLKVPLTFGGGTKVEIK
notes: Fab prepared from the mAb with the Pierce Fab Preparation Kit; Only the variable domains are tied to the name
Take B8: the figures for the dissociation constant Kd in test [2], in test [3] and in test [4] were 0.356 nM, 0.366 nM and 0.361 nM, respectively. In addition, the results for the off-rate constant (koff) in test [2] and in test [3] were 0.00057 s⁻¹ and 0.00064 s⁻¹, respectively. In addition, the kon in test [2] is 1.6e+06 M⁻¹ s⁻¹; in test [3], 1.75e+06 M⁻¹ s⁻¹.

B9: mu425 (antibody, V domains shown)
VH: EVKLVESGGGLVKPGGSLKLSCAASGFTFSRYAMSWVRQIPEKRLEWVAAISSGGSLYFPDSVKGRFTISRDNARNICYLQMNSLRSDDTAMYYCARGREADGGYFDYWGQGTTLTVSS
VL: DIVLTQSPASLAVSLGQRATISCRASESVEYYGTSLMQWYQQKPGQPPKLLIYAASNVESGVPARFSGSGSGTDFSLNIHPVEEDDIAMYFCQQSMKVPLTFGAGTKLELK
notes: Murine hybridoma mAb, purified
Take B9: in test [8], the Kd came to 0.058 nM, the dissociation rate constant (koff) is 9.33e-05 s⁻¹ and the on-rate (kon) was 1.59e+06 M⁻¹ s⁻¹.

B10: ch425 Fab (Fab, V domains shown)
VH: EVKLVESGGGLVKPGGSLKLSCAASGFTFSRYAMSWVRQIPEKRLEWVAAISSGGSLYFPDSVKGRFTISRDNARNICYLQMNSLRSDDTAMYYCARGREADGGYFDYWGQGTTLTVSS
VL: DIVLTQSPASLAVSLGQRATISCRASESVEYYGTSLMQWYQQKPGQPPKLLIYAASNVESGVPARFSGSGSGTDFSLNIHPVEEDDIAMYFCQQSMKVPLTFGAGTKLELKR
notes: as for B3
Regarding B10, in test [2], binding was put at a Kd of 0.122 nM, the off-rate (koff) amounted to 0.000204 s⁻¹ and the association rate constant (kon) was 1.67e+06 M⁻¹ s⁻¹.

B11: Ab2 in human IgG4 format with S228P mutation (antibody, V domains shown)
VH: EVQLLESGGGLVQPGGSLRLSCAAASGFTFSSYDMSWVRQAPGKGLDWVSTISGGGTYTYYQDSVKGRFTISRDNSKNTLYLQMNSLRAEDTAVYYCASMDYWGQGTTVTVSS
VL: DIQMTQSPSSLSASVGDRVTITCRASQSIRRYLNWYHQKPGKAPKLLIYGASTLQSGVPSRFSGSGSGTDFTLTISSLQPEDFAVYYCQQSHSAPLTFGGGTKVEIKR
notes: as for B1
B11: in test [1], the dissociation constant Kd was 19.4 nM, the dissociation rate constant (koff) is 0.0122 s⁻¹ and the kon worked out at 627000 M⁻¹ s⁻¹.

Values taken from US20240076375A1 (BEIGENE, published 2024).
